The text below walks through data of patent US20250161408A1, “PEPTIDIC INHIBITORS OF AMYLOID SELF- AND CROSS-ASSEMBLY” (TECHNISCHE UNIVERSITÄT MÜNCHEN, priority 2022, published 2025).

Non-standard residues stand in square brackets, D forms with d. NMeF = CN[C@@H](Cc1ccccc1)C(=O)O; NMeL = CN[C@@H](CC(C)C)C(=O)O; NMeV = CN[C@H](C(=O)O)C(C)C; Nle = CCCC[C@H](N)C(=O)O

The labels stand for the following.
B1: L3-VF (peptide)
peptide: H-QKL[NMeV]F[NMeF]AEDLLLNKGAIIGL[Nle]VGGVV-OH
SMILES: CCCC[C@H](NC(=O)[C@H](CC(C)C)NC(=O)CNC(=O)[C@@H](NC(=O)[C@@H](NC(=O)[C@H](C)NC(=O)CNC(=O)[C@H](CCCCN)NC(=O)[C@H](CC(N)=O)NC(=O)[C@H](CC(C)C)NC(=O)[C@H](CC(C)C)NC(=O)[C@H](CC(C)C)NC(=O)[C@H](CC(=O)O)NC(=O)[C@H](CCC(=O)O)NC(=O)[C@H](C)NC(=O)[C@H](Cc1ccccc1)N(C)C(=O)[C@H](Cc1ccccc1)NC(=O)[C@H](C(C)C)N(C)C(=O)[C@H](CC(C)C)NC(=O)[C@H](CCCCN)NC(=O)[C@@H](N)CCC(N)=O)[C@@H](C)CC)[C@@H](C)CC)C(=O)N[C@H](C(=O)NCC(=O)NCC(=O)N[C@H](C(=O)N[C@H](C(=O)O)C(C)C)C(C)C)C(C)C
B2: Nle3-VF (peptide)
peptide: H-QKL[NMeV]F[NMeF]AED[Nle][Nle][Nle]NKGAIIGL[Nle]VGGVV-OH
SMILES: CCCC[C@H](NC(=O)[C@H](CC(=O)O)NC(=O)[C@H](CCC(=O)O)NC(=O)[C@H](C)NC(=O)[C@H](Cc1ccccc1)N(C)C(=O)[C@H](Cc1ccccc1)NC(=O)[C@H](C(C)C)N(C)C(=O)[C@H](CC(C)C)NC(=O)[C@H](CCCCN)NC(=O)[C@@H](N)CCC(N)=O)C(=O)N[C@@H](CCCC)C(=O)N[C@@H](CCCC)C(=O)N[C@@H](CC(N)=O)C(=O)N[C@@H](CCCCN)C(=O)NCC(=O)N[C@@H](C)C(=O)N[C@H](C(=O)N[C@H](C(=O)NCC(=O)N[C@@H](CC(C)C)C(=O)N[C@@H](CCCC)C(=O)N[C@H](C(=O)NCC(=O)NCC(=O)N[C@H](C(=O)N[C@H](C(=O)O)C(C)C)C(C)C)C(C)C)[C@@H](C)CC)[C@@H](C)CC
B3: F3-LF (peptide)
peptide: H-QK[NMeL]V[NMeF]FAEDFFFNKGAIIGL[Nle]VGGVV-OH
SMILES: CCCC[C@H](NC(=O)[C@H](CC(C)C)NC(=O)CNC(=O)[C@@H](NC(=O)[C@@H](NC(=O)[C@H](C)NC(=O)CNC(=O)[C@H](CCCCN)NC(=O)[C@H](CC(N)=O)NC(=O)[C@H](Cc1ccccc1)NC(=O)[C@H](Cc1ccccc1)NC(=O)[C@H](Cc1ccccc1)NC(=O)[C@H](CC(=O)O)NC(=O)[C@H](CCC(=O)O)NC(=O)[C@H](C)NC(=O)[C@H](Cc1ccccc1)NC(=O)[C@H](Cc1ccccc1)N(C)C(=O)[C@@H](NC(=O)[C@H](CC(C)C)N(C)C(=O)[C@H](CCCCN)NC(=O)[C@@H](N)CCC(N)=O)C(C)C)[C@@H](C)CC)[C@@H](C)CC)C(=O)N[C@H](C(=O)NCC(=O)NCC(=O)N[C@H](C(=O)N[C@H](C(=O)O)C(C)C)C(C)C)C(C)C
B4: L3-LF (peptide)
peptide: H-QK[NMeL]V[NMeF]FAEDLLLNKGAIIGL[Nle]VGGVV-OH
SMILES: CCCC[C@H](NC(=O)[C@H](CC(C)C)NC(=O)CNC(=O)[C@@H](NC(=O)[C@@H](NC(=O)[C@H](C)NC(=O)CNC(=O)[C@H](CCCCN)NC(=O)[C@H](CC(N)=O)NC(=O)[C@H](CC(C)C)NC(=O)[C@H](CC(C)C)NC(=O)[C@H](CC(C)C)NC(=O)[C@H](CC(=O)O)NC(=O)[C@H](CCC(=O)O)NC(=O)[C@H](C)NC(=O)[C@H](Cc1ccccc1)NC(=O)[C@H](Cc1ccccc1)N(C)C(=O)[C@@H](NC(=O)[C@H](CC(C)C)N(C)C(=O)[C@H](CCCCN)NC(=O)[C@@H](N)CCC(N)=O)C(C)C)[C@@H](C)CC)[C@@H](C)CC)C(=O)N[C@H](C(=O)NCC(=O)NCC(=O)N[C@H](C(=O)N[C@H](C(=O)O)C(C)C)C(C)C)C(C)C
B5: Nle3-LF (peptide)
peptide: H-QK[NMeL]V[NMeF]FAED[Nle][Nle][Nle]NKGAIIGL[Nle]VGGVV-OH
SMILES: CCCC[C@H](NC(=O)[C@H](CC(=O)O)NC(=O)[C@H](CCC(=O)O)NC(=O)[C@H](C)NC(=O)[C@H](Cc1ccccc1)NC(=O)[C@H](Cc1ccccc1)N(C)C(=O)[C@@H](NC(=O)[C@H](CC(C)C)N(C)C(=O)[C@H](CCCCN)NC(=O)[C@@H](N)CCC(N)=O)C(C)C)C(=O)N[C@@H](CCCC)C(=O)N[C@@H](CCCC)C(=O)N[C@@H](CC(N)=O)C(=O)N[C@@H](CCCCN)C(=O)NCC(=O)N[C@@H](C)C(=O)N[C@H](C(=O)N[C@H](C(=O)NCC(=O)N[C@@H](CC(C)C)C(=O)N[C@@H](CCCC)C(=O)N[C@H](C(=O)NCC(=O)NCC(=O)N[C@H](C(=O)N[C@H](C(=O)O)C(C)C)C(C)C)C(C)C)[C@@H](C)CC)[C@@H](C)CC
B6: F3-VF (peptide)
peptide: H-QKL[NMeV]F[NMeF]AEDFFFNKGAIIGL[Nle]VGGVV-OH
SMILES: CCCC[C@H](NC(=O)[C@H](CC(C)C)NC(=O)CNC(=O)[C@@H](NC(=O)[C@@H](NC(=O)[C@H](C)NC(=O)CNC(=O)[C@H](CCCCN)NC(=O)[C@H](CC(N)=O)NC(=O)[C@H](Cc1ccccc1)NC(=O)[C@H](Cc1ccccc1)NC(=O)[C@H](Cc1ccccc1)NC(=O)[C@H](CC(=O)O)NC(=O)[C@H](CCC(=O)O)NC(=O)[C@H](C)NC(=O)[C@H](Cc1ccccc1)N(C)C(=O)[C@H](Cc1ccccc1)NC(=O)[C@H](C(C)C)N(C)C(=O)[C@H](CC(C)C)NC(=O)[C@H](CCCCN)NC(=O)[C@@H](N)CCC(N)=O)[C@@H](C)CC)[C@@H](C)CC)C(=O)N[C@H](C(=O)NCC(=O)NCC(=O)N[C@H](C(=O)N[C@H](C(=O)O)C(C)C)C(C)C)C(C)C

Chain of islet amyloid polypeptide (IAPP) (human) (P10997 34-70): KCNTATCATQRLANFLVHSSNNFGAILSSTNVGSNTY

The first assay concerns the target islet amyloid polypeptide (IAPP) (human) (UniProt P10997).
Consider B1, for which the IC50 of inhibitory effect on IAPP-mediated cell damage (MTT reduction, RIN5fm cells) was 112 nM. In the case of B2, the IC50 of inhibitory effect on IAPP-mediated cell damage (MTT reduction, RIN5fm cells) is 65 nM.

The molecule B3 displayed an IC50 of inhibitory effect on IAPP-mediated cell damage (MTT reduction, RIN5fm cells) of 41.7 nM. As for B4, the IC50 of inhibitory effect on IAPP-mediated cell damage (MTT reduction, RIN5fm cells) came to 133 nM. B5 came in with an IC50 of inhibitory effect on IAPP-mediated cell damage (MTT reduction, RIN5fm cells) of 82.1 nM. B6 had an IC50 of inhibitory effect on IAPP-mediated cell damage (MTT reduction, RIN5fm cells) of 78.5 nM.

Another assay concerns the target Aβ42 (Homo sapiens (Human)) (UniProt P05067).
As to B1, the IC50 of inhibitory effect on Aβ42-mediated cell damage (MTT reduction, PC12 cells) turned out to be 261 nM. For the molecule B2, the IC50 of inhibitory effect on Aβ42-mediated cell damage (MTT reduction, PC12 cells) is 367 nM. Consider B3, for which the IC50 of inhibitory effect on Aβ42-mediated cell damage (MTT reduction, PC12 cells) amounted to 262 nM.

Molecule B6 had an IC50 of inhibitory effect on Aβ42-mediated cell damage (MTT reduction, PC12 cells) of 1030 nM.
